Reference: publication PMC4735030

Target: porcine colonic mucins (porcine)
Test: SPR

Kd: 0.0982 µM
koff: 0.00279 s⁻¹
kon: 28400 M⁻¹ s⁻¹
Substance: recombinant BL0675 A type with a C-terminal 6 x His tag (natural protein)
